# ± gives the uncertainty stated by the source.
# Assay: self-splicing fitness, log relative to wild type (ln ratio); higher = more splicing; Tetrahymena group I intron in knt gene, E. coli kanamycin selection, DiMSum; sequences stand for … in CUCUCU…GGAGGGAAAAGUUAUCAGGCAUGCACCUGGUAGCUAGUCUUUAAACCAAUAGAUUGCAUCGGUUUAAAAGGCAAGACCGUCAAAUUGCGGGAAAGGGGUCAACAGCCGUUCAGUACCAAGUCUCAGGGGAAACUUUGAGAUGGCCUUGCAAAGGGUAUGGUAAUAAGCUGACGGACAUGGUCCUAACCACGCAGCCAAGUCCUAAGUCAACAGAUCUUCUGUUGAUAUGGAUGCAGUUCACAGACUAAAUGUCGGUCGGGGAAGAUGUAUUCUUCUCAUAAGAUAUAGUCGGACCUCUCCUUAAUGGGAGCUAGCGGAUGAAGUGAUGCAACACUGGAGCCGCUGGGAACUAAUUUGUAUGCGAAAGUAUAUUGAUUAGUUUUGGAGUACUCGUGGUCG
# How it was run: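 Fitness was computed with DiMSum as the error-weighted combination of replicate fold changes, kanamycin versus none, each normalised to wild type. The library randomised all eight intron nucleotides of the P1ex region, with the intron placed in the knt kanamycin-resistance gene on pET-22b(+) in E. coli BL21(DE3). Six replicate transformations were grown overnight at 37°C or 30°C on LB agar with or without 25 μg/mL kanamycin, plus 100 μg/mL carbenicillin, 50 μM IPTG and 0.2% rhamnose. Pooled colonies were amplicon-sequenced on an Illumina HiSeq 2500.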
Sequence,self-splicing fitness (ln) (30 °C),self-splicing fitness (ln) (37 °C)
CUGAAGCAAUAUUACGGUCA,-1.38 ± 0.096,-0.796 ± 0.13
CUGAAGCAAUAUUACGGUGC,-2.89 ± 0.25,
CUGAAGCAAUAUUACGGUGG,-1.02 ± 0.065,-0.466 ± 0.094
CUGAAGCAAUAUUACGUAUC,-3.82 ± 0.23,-1.78 ± 0.23
CUGAAGCAAUAUUACGUCUC,,-1.47 ± 0.18
CUGAAGCAAUAUUACGUGAA,-2.91 ± 0.23,-1.93 ± 0.26
CUGCAGCAAUAUUACGAAGU,-4.26 ± 0.34,
CUGCAGCAAUAUUACGAAUU,-3.62 ± 0.22,-3.18 ± 0.43
CUGCAGCAAUAUUACGACAG,-2.43 ± 0.13,-1.56 ± 0.18
CUGCAGCAAUAUUACGACGA,-1.85 ± 0.18,-1.16 ± 0.17
CUGCAGCAAUAUUACGACUG,-2.56 ± 0.16,-1.74 ± 0.2
CUGCAGCAAUAUUACGAGGU,-3.65 ± 0.14,-3.53 ± 0.2
CUGCAGCAAUAUUACGAGUA,-2.85 ± 0.23,-2.97 ± 0.28
CUGCAGCAAUAUUACGAUAA,-3.39 ± 0.28,-3.1 ± 0.28
CUGCAGCAAUAUUACGCAGU,-1.6 ± 0.14,-3.15 ± 0.35
CUGCAGCAAUAUUACGCCUG,-2.21 ± 0.28,-1.14 ± 0.28
CUGCAGCAAUAUUACGCGAU,-1.12 ± 0.09,-0.167 ± 0.12
CUGCAGCAAUAUUACGCGUA,-1.22 ± 0.23,-1.53 ± 0.22
CUGCAGCAAUAUUACGGAAC,-3.88 ± 0.27,-1.81 ± 0.27
CUGCAGCAAUAUUACGGCAA,-0.665 ± 0.094,0.202 ± 0.088
CUGCAGCAAUAUUACGGUAC,-4.59 ± 0.24,-1.81 ± 0.21
CUGCAGCAAUAUUACGGUCG,-0.487 ± 0.077,0.0459 ± 0.09
CUGCAGCAAUAUUACGUAUU,-4.27 ± 0.18,-3.51 ± 0.19
CUGCAGCAAUAUUACGUCUC,,-2.12 ± 0.26
CUGCAGCAAUAUUACGUGAG,-0.703 ± 0.067,0.216 ± 0.093

Sequence,self-splicing fitness (ln) (30 °C),self-splicing fitness (ln) (37 °C)
CUGGAGCAAUAUUACGAGAG,-3.54 ± 0.36,-3.53 ± 0.33
CUGGAGCAAUAUUACGAGUG,-1.26 ± 0.087,-0.568 ± 0.12
CUGGAGCAAUAUUACGAUGA,-3.18 ± 0.4,-1.87 ± 0.24
CUGGAGCAAUAUUACGCGGC,-1.27 ± 0.14,0.0532 ± 0.14
CUGGAGCAAUAUUACGCUCG,-1.13 ± 0.18,
CUGGAGCAAUAUUACGCUUA,-2.59 ± 0.45,-2.32 ± 0.35
CUGGAGCAAUAUUACGGAAG,-3.48 ± 0.41,-1.45 ± 0.28
CUGGAGCAAUAUUACGUACA,,-1.28 ± 0.48
CUGGAGCAAUAUUACGUAGC,,-2.38 ± 0.32
CUGGAGCAAUAUUACGUCAG,-4.05 ± 0.46,-2.59 ± 0.29
CUGGAGCAAUAUUACGUCCG,-2.17 ± 0.16,-0.559 ± 0.15
CUGGAGCAAUAUUACGUCGU,-3.88 ± 0.23,-2.39 ± 0.22
CUGGAGCAAUAUUACGUCUU,-3.27 ± 0.39,
CUGGAGCAAUAUUACGUGCG,-1.44 ± 0.092,-1.19 ± 0.12
CUGGAGCAAUAUUACGUGGC,-2.22 ± 0.21,-2.13 ± 0.25
CUGGAGCAAUAUUACGUUUG,-2.66 ± 0.17,-1.21 ± 0.17
CUGUAGCAAUAUUACGAACC,-2.02 ± 0.47,
CUGUAGCAAUAUUACGAAUC,-3.03 ± 0.35,
CUGUAGCAAUAUUACGACAC,,-2.65 ± 0.44
CUGUAGCAAUAUUACGAGAU,-3.86 ± 0.16,-2.21 ± 0.15
CUGUAGCAAUAUUACGAGCG,-0.681 ± 0.094,0.0625 ± 0.12
CUGUAGCAAUAUUACGAUCA,-2.29 ± 0.25,-1.96 ± 0.42
CUGUAGCAAUAUUACGAUGA,-1.86 ± 0.16,-1.83 ± 0.16
CUGUAGCAAUAUUACGCAAG,-2.47 ± 0.12,-1.56 ± 0.11
CUGUAGCAAUAUUACGCGAU,-4.41 ± 0.32,-2.87 ± 0.28

Sequence,self-splicing fitness (ln) (30 °C),self-splicing fitness (ln) (37 °C)
CUGUAGCAAUAUUACGGACU,-3.43 ± 0.3,-1.83 ± 0.24
CUGUAGCAAUAUUACGGCAA,-3.11 ± 0.39,
CUGUAGCAAUAUUACGGCCG,-0.368 ± 0.13,0.257 ± 0.16
CUGUAGCAAUAUUACGGGCG,-1.86 ± 0.09,-0.334 ± 0.11
CUGUAGCAAUAUUACGGGCU,-4.31 ± 0.3,-3.2 ± 0.29
CUGUAGCAAUAUUACGGGGU,-2.96 ± 0.34,-2.82 ± 0.36
CUGUAGCAAUAUUACGGGUC,-4.47 ± 0.34,-2.65 ± 0.26
CUGUAGCAAUAUUACGGUGC,-3.58 ± 0.2,-2.77 ± 0.19
CUGUAGCAAUAUUACGUCUU,-4.7 ± 0.26,-2.67 ± 0.3
CUGUAGCAAUAUUACGUGCU,-2.94 ± 0.24,-2.39 ± 0.33
CUGUAGCAAUAUUACGUUGU,-3.59 ± 0.25,-4.02 ± 0.33
CUUAAGCAAUAUUACGAAGA,-2.98 ± 0.24,-1.45 ± 0.26
CUUAAGCAAUAUUACGAAGU,-2.9 ± 0.13,-2.19 ± 0.18
CUUAAGCAAUAUUACGACGC,-3.04 ± 0.28,-2.22 ± 0.4
CUUAAGCAAUAUUACGACUU,-4.36 ± 0.32,-1.74 ± 0.21
CUUAAGCAAUAUUACGAGUG,-1.39 ± 0.068,-0.428 ± 0.1
CUUAAGCAAUAUUACGAUGA,-3.04 ± 0.43,-0.126 ± 0.22
CUUAAGCAAUAUUACGAUUU,-4.53 ± 0.42,-2.7 ± 0.24
CUUAAGCAAUAUUACGCACA,-2.43 ± 0.35,-1.87 ± 0.4
CUUAAGCAAUAUUACGCACG,-1.62 ± 0.14,-0.394 ± 0.16
CUUAAGCAAUAUUACGCACU,-2.93 ± 0.17,-1.53 ± 0.17
CUUAAGCAAUAUUACGCCAG,-2.49 ± 0.22,-2.06 ± 0.33
CUUAAGCAAUAUUACGCCAU,-1.9 ± 0.33,-2.35 ± 0.29
CUUAAGCAAUAUUACGCUAG,-3.35 ± 0.25,-0.439 ± 0.19
CUUAAGCAAUAUUACGCUGU,-4.48 ± 0.34,-2.3 ± 0.23

Sequence,self-splicing fitness (ln) (30 °C),self-splicing fitness (ln) (37 °C)
CUUAAGCAAUAUUACGCUUC,-3.15 ± 0.4,
CUUAAGCAAUAUUACGGACG,-0.229 ± 0.085,0.228 ± 0.12
CUUAAGCAAUAUUACGGAGA,-2.45 ± 0.24,-2.31 ± 0.29
CUUAAGCAAUAUUACGGCCG,-0.607 ± 0.093,-0.38 ± 0.13
CUUAAGCAAUAUUACGGCCU,-2.74 ± 0.25,-3.1 ± 0.44
CUUAAGCAAUAUUACGGCGA,-4.04 ± 0.46,-1.81 ± 0.34
CUUAAGCAAUAUUACGGGGU,-3.09 ± 0.15,-3.33 ± 0.29
CUUAAGCAAUAUUACGGUAG,-1.58 ± 0.12,-0.559 ± 0.12
CUUAAGCAAUAUUACGGUCU,-4.28 ± 0.26,-2.64 ± 0.29
CUUAAGCAAUAUUACGGUUU,-4.49 ± 0.3,-2.88 ± 0.4
CUUAAGCAAUAUUACGUAAU,-2.96 ± 0.13,-1.56 ± 0.12
CUUAAGCAAUAUUACGUACA,,-2.73 ± 0.39
CUUAAGCAAUAUUACGUGAG,-3.73 ± 0.19,-2.14 ± 0.14
CUUAAGCAAUAUUACGUGUC,-4.45 ± 0.21,-1.8 ± 0.15
CUUAAGCAAUAUUACGUGUG,-1.18 ± 0.061,-0.604 ± 0.074
CUUCAGCAAUAUUACGAAGG,-2.06 ± 0.13,-1.08 ± 0.18
CUUCAGCAAUAUUACGACUG,-0.803 ± 0.077,-0.505 ± 0.092
CUUCAGCAAUAUUACGAGUG,-0.689 ± 0.051,-0.602 ± 0.071
CUUCAGCAAUAUUACGAUUG,-0.473 ± 0.045,0.038 ± 0.063
CUUCAGCAAUAUUACGCAAG,-4.31 ± 0.26,-1.81 ± 0.2
CUUCAGCAAUAUUACGCAGU,-3.96 ± 0.43,-2.9 ± 0.33
CUUCAGCAAUAUUACGCCUG,-0.748 ± 0.074,0.268 ± 0.1
CUUCAGCAAUAUUACGCGAU,-2.85 ± 0.32,-1.19 ± 0.38
CUUCAGCAAUAUUACGCUGA,-2.41 ± 0.17,-2.56 ± 0.29
CUUCAGCAAUAUUACGCUGC,,-1.65 ± 0.18

# — the supplement of paper PMC7877785
